Data reported in patent US20160326257A1 (PIERRE FABRE MEDICAMENT, published 2016).
Substitutions are numbered along the chain they refer to.

B1: enzymatically deglycosylated m1022C3 (antibody, V domains shown)
VH: QVTLKESGPGILQPSQTLSLTCSFSGFSLDTSGMGVSWIRQPSGKGLEWLAHIYWDDDKRYNPSLKSRLTISKDTSSNQVFLKITSLDTADTATYYCARRSHFGNYYYAMDYWGQGTSVTVTS
VL: DVQMTQTTSSLSASLGDRVTISCRASQDISSYLNWYQQKPDGTFKLLIFYTSRLQSGVPSKYSGSGSGTDYSLTISNLEQEDIAAYFCQQGKTLPLTFGAGTKLELK
notes: also called enzymatically deglycosylated 1022C3
B2: m1022C3 (murine anti-ADAM17 monoclonal antibody 1022C3, hybridoma I-4686) (antibody, V domains shown)
VH: B1 VH with D30N
VL: B1 VL
modifications: N-glycosylated asparagine in CDR-H1
notes: Murine antibody from a hybridoma; also called mAb 1022C3; mAb m1022C3

Assays:
[1] = target: T1, human ADAM17 on tumour cells (A431, MCF-7, NCI-H1299) (human, UniProt P78536 215-824); experiment: binding to NCI-H1299 tumour cells, read as MFI against antibody concentration (Log [M])
T1 construct: Endogenous ADAM17 on human tumour cell lines; also called cellular form of ADAM17
T1 sequence (P78536 215-824 limits assumed): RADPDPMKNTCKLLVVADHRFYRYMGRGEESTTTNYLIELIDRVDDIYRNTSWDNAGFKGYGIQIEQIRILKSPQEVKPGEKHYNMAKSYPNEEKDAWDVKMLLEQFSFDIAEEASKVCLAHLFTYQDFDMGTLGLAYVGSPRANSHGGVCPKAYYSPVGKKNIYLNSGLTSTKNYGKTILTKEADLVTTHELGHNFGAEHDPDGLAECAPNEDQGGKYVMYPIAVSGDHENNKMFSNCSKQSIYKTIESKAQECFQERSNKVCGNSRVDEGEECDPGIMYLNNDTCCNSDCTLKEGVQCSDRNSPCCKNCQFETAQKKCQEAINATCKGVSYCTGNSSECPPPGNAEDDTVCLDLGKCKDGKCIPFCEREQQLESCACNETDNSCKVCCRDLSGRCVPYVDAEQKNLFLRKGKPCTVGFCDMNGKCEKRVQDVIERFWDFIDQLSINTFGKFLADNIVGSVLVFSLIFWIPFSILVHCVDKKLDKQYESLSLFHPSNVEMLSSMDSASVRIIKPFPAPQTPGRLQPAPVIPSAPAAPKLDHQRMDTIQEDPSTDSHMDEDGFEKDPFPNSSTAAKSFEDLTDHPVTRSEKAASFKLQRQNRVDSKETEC

[2] = target: T2, H1-474 (P-C) human ADAM17 human Fc fusion (human, UniProt P78536 18-474); experiment: SPR Biacore X100, about 700 RU m1022C3 captured, construct at 250 nM for 3 min
T2 construct: Expressed in HEK293 and purified on protein A; not shown: human Fc domain at the C-terminus
T2 sequence (P78536 18-474): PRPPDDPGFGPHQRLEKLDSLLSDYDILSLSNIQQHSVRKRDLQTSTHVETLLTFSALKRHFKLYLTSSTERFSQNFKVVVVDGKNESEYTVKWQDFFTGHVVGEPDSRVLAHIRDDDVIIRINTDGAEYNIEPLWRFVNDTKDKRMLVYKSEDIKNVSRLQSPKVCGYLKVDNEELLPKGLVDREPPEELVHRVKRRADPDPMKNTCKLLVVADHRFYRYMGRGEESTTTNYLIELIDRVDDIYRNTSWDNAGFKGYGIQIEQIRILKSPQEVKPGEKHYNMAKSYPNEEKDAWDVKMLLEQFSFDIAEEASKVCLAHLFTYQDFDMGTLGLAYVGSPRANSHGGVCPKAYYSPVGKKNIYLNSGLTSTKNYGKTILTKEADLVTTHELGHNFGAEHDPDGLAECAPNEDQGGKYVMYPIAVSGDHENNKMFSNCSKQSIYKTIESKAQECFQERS
Method: (§1) The experiment was performed on a Biacore X100 device. The mAb 1022C3 is used as the ligand and the ADAM17 fragments and chimeric constructs are used as the analyte. The experiment is run at 10 μl/min at 25° C. on a rabbit anti-mouse polyclonal antibody (Mouse antibody capture kit, BR-1008-38, GE Healthcare) covalently linked to the matrix of both flowcells of a CM5 sensorchip (BR-1000-12) using the amine coupling kit (BR-1000-50, GE Healthcare), using the HBS-EP+ buffer (BR-1008-26, GE Healthcare) as the running buffer. This buffer is also used for the dilutions of the ligand and the analytes.

[3] = target: T3, H475-563 (D) human ADAM17 human Fc fusion (human, UniProt P78536 475-563); experiment: as above
T3 construct: Expressed in HEK293 and purified on protein A; not shown: human Fc domain at the C-terminus
T3 sequence (P78536 475-563): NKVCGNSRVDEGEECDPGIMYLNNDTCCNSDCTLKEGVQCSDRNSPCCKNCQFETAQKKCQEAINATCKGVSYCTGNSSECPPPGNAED
Method: as §1

[4] = target: T4, H475-602 (D-MPD (Nter)) human ADAM17 human Fc fusion (human, UniProt P78536 475-602); experiment: as above
T4 construct: Expressed in HEK293 and purified on protein A; not shown: human Fc domain at the C-terminus
T4 sequence (P78536 475-602): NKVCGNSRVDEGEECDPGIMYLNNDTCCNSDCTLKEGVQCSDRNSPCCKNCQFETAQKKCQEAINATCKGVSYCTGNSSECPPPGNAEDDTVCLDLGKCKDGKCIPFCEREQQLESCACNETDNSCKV
Method: as §1

[5] = target: T5, H603-671 (MPD (Cter)) human ADAM17 human Fc fusion (human, UniProt P78536 603-671); experiment: as above
T5 construct: Expressed in HEK293 and purified on protein A; not shown: human Fc domain at the C-terminus
T5 sequence (P78536 603-671): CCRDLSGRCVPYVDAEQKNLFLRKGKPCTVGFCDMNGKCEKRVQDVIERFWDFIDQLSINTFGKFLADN
Method: as §1

[6] = target: T6, H223-602 (C-D MPD (Nter)) human ADAM17 human Fc fusion (human, UniProt P78536 223-602); experiment: as above
T6 construct: Expressed in HEK293 and purified on protein A; not shown: human Fc domain at the C-terminus
T6 sequence (P78536 223-602): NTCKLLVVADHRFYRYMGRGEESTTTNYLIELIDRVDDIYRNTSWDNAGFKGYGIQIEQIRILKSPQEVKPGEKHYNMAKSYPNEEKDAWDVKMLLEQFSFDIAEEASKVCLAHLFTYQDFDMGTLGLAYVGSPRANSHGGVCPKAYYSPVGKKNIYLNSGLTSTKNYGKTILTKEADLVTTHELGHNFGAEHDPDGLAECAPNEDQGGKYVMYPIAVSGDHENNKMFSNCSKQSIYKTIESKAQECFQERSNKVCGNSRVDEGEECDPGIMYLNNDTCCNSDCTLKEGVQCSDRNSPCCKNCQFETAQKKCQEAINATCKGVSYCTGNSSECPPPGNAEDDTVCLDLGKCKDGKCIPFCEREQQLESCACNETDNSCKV
Method: as §1

[7] = target: T7, H223-563 (C-D) human ADAM17 human Fc fusion (human, UniProt P78536 223-563); experiment: as above
T7 construct: Expressed in HEK293 and purified on protein A; not shown: human Fc domain at the C-terminus
T7 sequence (P78536 223-563): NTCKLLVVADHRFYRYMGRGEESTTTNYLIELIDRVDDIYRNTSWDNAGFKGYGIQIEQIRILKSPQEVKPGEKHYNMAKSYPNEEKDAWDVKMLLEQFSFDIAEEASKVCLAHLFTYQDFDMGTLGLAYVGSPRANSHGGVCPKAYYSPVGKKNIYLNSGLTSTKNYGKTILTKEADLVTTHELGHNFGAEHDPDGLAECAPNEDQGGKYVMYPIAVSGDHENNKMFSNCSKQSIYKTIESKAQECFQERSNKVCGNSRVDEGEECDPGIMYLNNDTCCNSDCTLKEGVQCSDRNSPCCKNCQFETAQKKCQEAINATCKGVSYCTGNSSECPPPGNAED
Method: as §1

[8] = target: M1-602H603-671 (p-c-d-mpd (Nter)-MPD (Cter)) murine/human chimeric ADAM17 human Fc fusion (murine; human) (UniProt Q9Z0F8); experiment: as above
Sequence of M1-602H603-671 (p-c-d-mpd (Nter)-MPD (Cter)) murine/human chimeric ADAM17 human Fc fusion (murine; human) (Q9Z0F8 other isoform, or with tags, fused parts or gaps mutant limits assumed, form in doubt): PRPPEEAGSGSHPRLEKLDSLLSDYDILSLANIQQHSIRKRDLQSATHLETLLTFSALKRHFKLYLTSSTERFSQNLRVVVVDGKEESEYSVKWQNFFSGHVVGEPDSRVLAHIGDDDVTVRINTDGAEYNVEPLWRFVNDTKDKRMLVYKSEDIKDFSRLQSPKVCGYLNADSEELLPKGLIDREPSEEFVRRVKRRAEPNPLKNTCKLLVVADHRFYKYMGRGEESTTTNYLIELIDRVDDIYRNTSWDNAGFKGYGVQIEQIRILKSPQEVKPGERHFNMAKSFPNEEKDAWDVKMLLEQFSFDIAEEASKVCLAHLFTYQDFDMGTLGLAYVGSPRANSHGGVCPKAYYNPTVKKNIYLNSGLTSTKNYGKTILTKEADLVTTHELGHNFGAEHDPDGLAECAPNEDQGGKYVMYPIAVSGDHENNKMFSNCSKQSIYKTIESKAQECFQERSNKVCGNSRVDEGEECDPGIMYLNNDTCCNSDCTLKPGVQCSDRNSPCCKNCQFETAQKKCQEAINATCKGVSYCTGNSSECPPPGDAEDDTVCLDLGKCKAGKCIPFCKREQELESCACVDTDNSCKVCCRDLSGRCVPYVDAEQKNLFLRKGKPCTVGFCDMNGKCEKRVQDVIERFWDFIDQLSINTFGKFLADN

[9] = target: M1-671 (p-c-d-mpd) murine ADAM17 human Fc fusion (murine) (UniProt Q9Z0F8); experiment: as above
Sequence of M1-671 (p-c-d-mpd) murine ADAM17 human Fc fusion (murine) (Q9Z0F8 18-671 limits assumed, form in doubt): as the sequence (Q9Z0F8 other isoform, or with tags, fused parts or gaps mutant limits assumed, form in doubt) above, with D589N, R593P counted along it

[10] = target: ADAM17 fragments and chimeric constructs giving the positive response (BIAcore); experiment: as above
[11] = target: soluble ADAM17 (extracellular domain of ADAM-17) (human, UniProt P78536 215-671); experiment: SPR Biacore, antibody captured on rabbit anti-mouse IgG, soluble ADAM17 400 to 12.5 nM, 1:1 Langmuir model
Sequence of soluble ADAM17 (extracellular domain of ADAM-17) (P78536 215-671): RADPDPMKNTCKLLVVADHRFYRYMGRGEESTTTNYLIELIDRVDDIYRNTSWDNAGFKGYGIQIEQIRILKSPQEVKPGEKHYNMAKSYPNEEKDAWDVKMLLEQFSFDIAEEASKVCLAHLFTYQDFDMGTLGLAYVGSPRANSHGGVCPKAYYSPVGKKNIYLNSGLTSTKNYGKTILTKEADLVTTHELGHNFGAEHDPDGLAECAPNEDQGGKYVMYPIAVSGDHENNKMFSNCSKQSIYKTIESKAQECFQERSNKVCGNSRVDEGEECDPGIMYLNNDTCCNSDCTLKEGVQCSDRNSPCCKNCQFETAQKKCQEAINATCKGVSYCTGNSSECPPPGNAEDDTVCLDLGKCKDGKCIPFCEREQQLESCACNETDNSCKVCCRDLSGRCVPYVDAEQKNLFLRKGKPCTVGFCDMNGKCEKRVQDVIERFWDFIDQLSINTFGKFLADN
Method: The antibody (ligand) was bound to the second flowcell of a Biacore CM5 sensor chip (GE Healthcare) activated on both flowcells with a Rabbit anti-Mouse (RAM) IgG (H+L) covalently linked to the carboxymethyldextran matrix. Soluble ADAM17 (analyte) at concentrations ranging from 400 to 12.5 nM obtained by a two fold dilution scheme (assuming a molecular weight of 52 kDa) was injected onto the surface at a flow rate of 30 μl/min in a 120 s pulse (association) plus an extra 180 s delay for the dissociation phase measurement. The RAM surface was regenerated using NaOH 30 mM, NaCl 150 mM and 10 mM Glycine, HCl pH 1.5 buffer solutions. Curves obtained at each concentration were double referenced by first subtracting the signal from the reference FC1 surface (RAM without any mouse anti-TACE mAb) followed by subtraction of the signal obtained from a running buffer injection (Biacore HBS-EP buffer).
Data were processed using BIAevaluation 3.1 software using the 1:1 Langmuir model. The suitability of the fit was measured by the values of the Refractive Index (RI) which have to tend to zero and the κ² value.

[12] = target: T1, human ADAM17 on tumour cells (A431, …); experiment: cell-based or functional assay

| Binder | binding result [1] | response (RU) [2] [RU] | response (RU) [3] [RU] | response (RU) [4] [RU] | response (RU) [5] [RU] | response (RU) [6] [RU] | response (RU) [7] [RU] | response (RU) [8] [RU] | response (RU) [9] [RU] | response (RU) [10] [RU] | Kd [11] [nM] | koff [11] [s⁻¹] | kon [11] [M⁻¹ s⁻¹] | IC50 (nM), inhibition of AREG-Nluc shedding from A431 cells [12] [nM] | IC50 (nM), inhibition of HB-EGF-Nluc shedding from A431 cells [12] [nM] | IC50 (nM), inhibition of TGFα-Nluc shedding from A431 cells [12] [nM] | IC50 (nM), inhibition of TNFα-Nluc shedding from A431 cells [12] [nM] | IC50 (nM), mean over the four substrates shed from A431 cells [12] [nM] |
| --- | --- | --- | --- | --- | --- | --- | --- | --- | --- | --- | --- | --- | --- | --- | --- | --- | --- | --- |
| B1 | binds |  |  |  |  |  |  |  |  |  |  |  |  |  |  |  |  |  |
| B2 |  | < 10 | < 10 | < 10 | < 10 | < 10 | < 10 | < 10 | < 10 | 90 to 140 | 1.27 | 0.00036 | 284000 | 0.067 | 0.062 | 0.093 | 0.054 | 0.069 |
